In patent publication US7256007B2, “Methods of regulating cytokine signalling” (The Walter and Eliza Hall Institute of Medical Research, priority 2000, dated 2007):
Square brackets hold non-standard residues; d marks the D form. Ends that are not written are not given here. pY = N[C@@H](Cc1ccc(OP(=O)(O)O)cc1)C(=O)O

T1: SOCS-3 (Mus musculus, UniProt O35718)
T1 construct: hexahistidine (pET15b) (N); made in house; host or cells: E. coli BL21 DE3 pLysS
T1 sequence (O35718 1-225): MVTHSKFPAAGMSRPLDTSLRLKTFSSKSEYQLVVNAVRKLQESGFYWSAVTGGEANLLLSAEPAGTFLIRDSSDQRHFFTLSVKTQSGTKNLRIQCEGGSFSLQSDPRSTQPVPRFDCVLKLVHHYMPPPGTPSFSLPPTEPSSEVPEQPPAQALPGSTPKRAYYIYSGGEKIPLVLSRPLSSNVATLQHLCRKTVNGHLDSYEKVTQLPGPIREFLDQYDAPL

T2: gp130(674-688) pY681 control phosphopeptide (mouse, not fully specified (N-terminus); printed as FNSKDQM(pY)SDGNFTD; also: biotinylated, site not given here)
T2 chain: FNSKDQM[pY]SDGNFTD-NH2

B1: SOCS-3 (recombinant, His-tagged) (protein)
chain: T1 sequence (O35718 1-225)
B2: gp130 phosphopeptide V11A (peptide)
chain: STASTVE[pY]STAVHSG-NH2
modifications: N-terminus assumed
SMILES: CC(C)[C@H](NC(=O)[C@H](C)NC(=O)[C@@H](NC(=O)[C@H](CO)NC(=O)[C@H](Cc1ccc(OP(=O)(O)O)cc1)NC(=O)[C@H](CCC(=O)O)NC(=O)[C@@H](NC(=O)[C@@H](NC(=O)[C@H](CO)NC(=O)[C@H](C)NC(=O)[C@@H](NC(=O)[C@@H](N)CO)[C@@H](C)O)[C@@H](C)O)C(C)C)[C@@H](C)O)C(=O)N[C@@H](Cc1c[nH]cn1)C(=O)N[C@@H](CO)C(=O)NCC(N)=O
B3: gp130 phosphopeptide S9A (peptide)
chain: STASTVE[pY]ATVVHSG-NH2
modifications: N-terminus assumed
SMILES: CC(C)[C@H](NC(=O)[C@@H](NC(=O)[C@@H](NC(=O)[C@H](C)NC(=O)[C@H](Cc1ccc(OP(=O)(O)O)cc1)NC(=O)[C@H](CCC(=O)O)NC(=O)[C@@H](NC(=O)[C@@H](NC(=O)[C@H](CO)NC(=O)[C@H](C)NC(=O)[C@@H](NC(=O)[C@@H](N)CO)[C@@H](C)O)[C@@H](C)O)C(C)C)[C@@H](C)O)C(C)C)C(=O)N[C@@H](Cc1c[nH]cn1)C(=O)N[C@@H](CO)C(=O)NCC(N)=O
B4: AcAE(pY)STVVHSG (peptide)
chain: Ac-AE[pY]STVVHSG-NH2
SMILES: CC(=O)N[C@@H](C)C(=O)N[C@@H](CCC(=O)O)C(=O)N[C@@H](Cc1ccc(OP(=O)(O)O)cc1)C(=O)N[C@@H](CO)C(=O)N[C@H](C(=O)N[C@H](C(=O)N[C@H](C(=O)N[C@@H](Cc1c[nH]cn1)C(=O)N[C@@H](CO)C(=O)NCC(N)=O)C(C)C)C(C)C)[C@@H](C)O
B5: STASTVE(pY)STVVH (peptide)
chain: STASTVE[pY]STVVH-NH2
modifications: N-terminus assumed
SMILES: CC(C)[C@H](NC(=O)[C@@H](NC(=O)[C@@H](NC(=O)[C@H](CO)NC(=O)[C@H](Cc1ccc(OP(=O)(O)O)cc1)NC(=O)[C@H](CCC(=O)O)NC(=O)[C@@H](NC(=O)[C@@H](NC(=O)[C@H](CO)NC(=O)[C@H](C)NC(=O)[C@@H](NC(=O)[C@@H](N)CO)[C@@H](C)O)[C@@H](C)O)C(C)C)[C@@H](C)O)C(C)C)C(=O)N[C@@H](Cc1c[nH]cn1)C(N)=O
B6: STASTVE(pY)STVVHS (peptide)
chain: STASTVE[pY]STVVHS-NH2
modifications: N-terminus assumed
SMILES: CC(C)[C@H](NC(=O)[C@@H](NC(=O)[C@@H](NC(=O)[C@H](CO)NC(=O)[C@H](Cc1ccc(OP(=O)(O)O)cc1)NC(=O)[C@H](CCC(=O)O)NC(=O)[C@@H](NC(=O)[C@@H](NC(=O)[C@H](CO)NC(=O)[C@H](C)NC(=O)[C@@H](NC(=O)[C@@H](N)CO)[C@@H](C)O)[C@@H](C)O)C(C)C)[C@@H](C)O)C(C)C)C(=O)N[C@@H](Cc1c[nH]cn1)C(=O)N[C@@H](CO)C(N)=O

What was measured:
EPOR/gp130Y757F = test: APRE-luc luciferase reporter assay in transiently transfected 293T cells, EPO stimulated; format: cell-based; settings: gp130 cytoplasmic domain with Y757F mutation, 10U/ml EPO overnight
Chain of EPOR/gp130Y757F (Q00560 640-917 Y757F limits assumed): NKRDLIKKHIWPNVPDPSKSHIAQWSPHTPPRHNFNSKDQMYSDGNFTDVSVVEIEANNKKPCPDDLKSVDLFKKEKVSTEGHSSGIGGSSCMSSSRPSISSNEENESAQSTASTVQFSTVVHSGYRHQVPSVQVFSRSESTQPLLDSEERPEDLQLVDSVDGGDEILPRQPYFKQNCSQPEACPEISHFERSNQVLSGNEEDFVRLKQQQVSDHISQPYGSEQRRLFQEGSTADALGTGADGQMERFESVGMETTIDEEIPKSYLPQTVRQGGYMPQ
Procedure: Generation of the expression vectors for SOCS-1 and SOCS-3, luciferase assays and Western blot analysis have been described previously (Nicholson et al., 1999). Briefly, 293T cells were transiently transfected with SOCS expression plasmids, a LIF-responsive reporter construct (APRE-luc; Endo et al., 1997) and a β-galactosidase reporter construct under a constitutive promoter (Srα-β-gal; Ogilvy et al., 1998). Luciferase activity from triplicate samples was determined and normalized against β-galactosidase activity.
It was therefore important to confirm these findings using a biological assay. A chimeric receptor was created that contained the erythropoietin receptor (EPOR) extracellular domain and the gp130 cytoplasmic domain (EPOR/gp130). A second receptor was created containing the EPO receptor extracellular domain and the gp130 cytoplasmic domain in which tyrosine 757 had been mutated to phenylalanine (EPOR/gp130Y757F). 293T cells were transiently transfected with cDNAs expressing the receptor constructs and either SOCS-3 or SOCS-1 in the presence of the APRE-luc and Srα-β-gal reporter genes. Cells were then incubated in the presence of 10U/ml EPO overnight and luciferase activity determined. Mutation of Y757 in the gp130 cytoplasmic domain has been reported to result in a hyperactive receptor complex, presumably from the loss of a negative regulator such as SHP-2. […]

SOCS-3 = target: T1, SOCS-3; test: Biosensor (SPR) analysis of recombinant SOCS-3 binding to immobilized biotinylated phosphopeptide; parameters: species or system murine; settings: non-specific control channel on the same chip
Procedure: Purified protein was refolded by dialysis into PBS containing 2 mM DTT, 2 mM EDTA and 0.02% v/v Tween 20. Refolded material was purified to homogeneity by ion exchange chromatography on a Mono S column (Pharmacia).
Phosphopeptides containing an N-terminal biotin moiety were immobilized onto a streptavidin-coated Biosensor chip (Pharmacia) at a density of ˜200 Resonance Units (Rus). […] Binding profiles were analyzed using the BIAevaluation software version 3.0 (Pharmacia).

[1] = target: T2, gp130(674-688) pY681 control …; test: SPR
[2] = target: B1; test: competition, SPR

Row | Molecule | IC50 [2] [nM] | further results
1 | SOCS-3: suppressor of cytokine signaling 3, expressed from transfected cDNA in 293T cells |  | SOCS-3 DNA giving 50% inhibition of luciferase activity (EPOR/gp130Y757F): 54 ng
2 | FNSKDQM(pY)SDGNFTD (FNSKDQM[pY]SDGNFTD-NH2; N-terminus assumed; SMILES CSCC[C@H](NC(=O)[C@H](CCC(N)=O)NC(=O)[C@H](CC(=O)O)NC(=O)[C@H](CCCCN)NC(=O)[C@H](CO)NC(=O)[C@H](CC(N)=O)NC(=O)[C@@H](N)Cc1ccccc1)C(=O)N[C@@H](Cc1ccc(OP(=O)(O)O)cc1)C(=O)N[C@@H](CO)C(=O)N[C@@H](CC(=O)O)C(=O)NCC(=O)N[C@@H](CC(N)=O)C(=O)N[C@@H](Cc1ccccc1)C(=O)N[C@H](C(=O)N[C@@H](CC(=O)O)C(N)=O)[C@@H](C)O) [gp30(674-688) phosphopeptide, non-cognate gp130 phosphopeptide immobilized as non-specific control] |  | specific binding of SOCS-3 to immobilized peptide (SOCS-3): no specific binding was detected
3 | B1 |  | binding result [1]: no binding
4 | B2 | 3400 | 
5 | B3 | 72 | 
6 | B4 | 580 | 
7 | B5 | 77 | 
8 | B6 | 61 | 
